According to patent US10245299B2, “Autoassembling peptides for the treatment of pulmonary bulla” (3-D MATRIX, LTD., priority 2014, dated 2019):

Legend:
Format in all cases: physicochemical
[1] = Rheological properties of pH adjusted peptide solutions and hydrogels; settings: KLD12 1%, IEIK13 1%, PuraMatrix® 1% and 2.5%
Description: Based on the visual observation of the effect of pH level on the properties of the peptide solutions, the effect on the rheological properties of the peptide solutions after adjusting their pH level to 3.4 (PuraMatrix® and KLD12) or 3.7 (IEIK13) was evaluated. If the pH levels of peptide solutions are higher than 3.5 (PuraMatrix® and KLD12) or 3.7 (IEIK13), the peptide solution began phase separation becoming cloudy. The rheological properties of PuraMatrix®, KLD12 and IEIK13 solutions were higher at pH 3.4. The results are shown in FIG. 2 for KLD12 1%, FIG. 3 for IEIK13 1%, and FIGS. 4-5 for PuraMatrix® 1% and 2.5%, respectively. Stress sweep tests were performed at 10 rad/s. Frequency sweep tests were performed at 1 Pa.
Based on the results of the effect on the rheological properties of the peptide solutions after adjusting their pH level to 3.4 (PuraMatrix® and KLD12) or 3.7 (IEIK13), the effect on the rheological properties of the peptide solutions at various pH levels was evaluated. […] The rheological properties of peptides were evaluated at various concentrations using a rheometer (DHR-1, TA Instruments) with 20 mm plates. The results are shown in FIG. 6A for PuraMatrix® 2.5% solution and FIG. 6B for IEIK13 1.5% solution, respectively. Frequency sweep tests were performed from 1 rad/sec to 10 rad/sec at 1 Pa and the storage modulus at 1 rad/sec was selected for data.
Based on the results of the effect on the rheological properties of the peptide solutions after adjusting their pH level, the effect on the rheological properties of the peptide hydrogels at various pH after DMEM treatment was evaluated and compared to the effect on the rheological properties of the peptide solutions at various pH before DMEM treatment. […] The results are shown in FIGS. 7A-7B for PuraMatrix® and FIGS. 8A-8B for IEIK (SEQ ID NO: 5), respectively. Frequency sweep tests were performed from 1 rad/sec to 10 rad/sec at 1 Pa and the storage modulus at 1 rad/sec was selected for data.

[2] = pH and appearance of 2.5% peptide solutions after adding 0.1 N NaOH
Description: To adjust the pH level of the peptide solutions by way of example, 0.1 N NaOH was added to 2 mL of 2.5% peptide solutions and their pH and appearance were measured.

[3] = Gelation of peptide solutions after saline buffer treatment, time sweep; settings: saline buffer (0.15 M of NaCl); IEIK13 1.5%, KLD12 1.5%, PuraMatrix® 2.5% solution
Description: The effect of salt ionic strength level surrounding peptide solution on the properties of peptide solutions was evaluated to identify the possibility of peptide gelation when the peptide solution is placed into the environment where salt ionic strength level is high. […] Without pH effect, the effect of saline treatment on gelation of peptide solutions were evaluated. […] This is because IEIK13 is much more sensitive to salt ionic strength levels. Fast gelation of IEIK13 at the salt ionic strength level similar to body fluid isotonic salt level may generally improve its function and gelation speed for various clinical applications. The results are shown in FIG. 19 for IEIK13, KLD12 and PuraMatrix® solutions. Time sweep tests were performed at 1 rad/sec and at 1 Pa with 20 mm plates and 500 μm gap distance. […]

[4] = Appearance of 1.5% peptide solutions with various salts at room temperature; settings: for Appearance: room temperature
Description: The effect of salt ionic strength level on the properties of peptide solutions was evaluated to identify optimized salt ionic strength levels for the peptides as described herein. Increasing the salt ionic strength level of PuraMatrix® and other peptides may generally improve its function and mechanical strength for various clinical applications. To adjust the salt ionic strength of the peptide solutions by way of example, various salt buffer solutions including NaCl, KCl, MgCl2, CaCl2 and DPBS (10×) were added to 2 mL of 1.5% peptide solutions.

For “Arg-Ala-Asp-Ala-Arg-Ala-Asp-Ala-Arg-Ala-Asp-Ala-Arg-Ala-Asp-Ala [PuraMatrix®]”, the “rheological properties of solutions at pH 3.4” value [1] was “higher”, the Appearance ([2]; 0.1N NaOH 0 μL/mL, conc. 2.5%, pH 2.2) was “Clear, thick gel” and the Appearance ([2]; 0.1N NaOH 50 μL/mL, conc. 2.38%, pH 2.3) was “Clear, thick gel”. The Appearance ([2]; 0.1N NaOH 100 μL/mL, conc. 2.27%, pH 2.4) was “Clear, thick gel”, the Appearance ([2]; 0.1N NaOH 150 μL/mL, conc. 2.17%, pH 2.7) was “Clear, thick,” and the Appearance ([2]; 0.1N NaOH 200 μL/mL, conc. 2.08%, pH 2.9) was “Clear, thick,”. For the same substance, the Appearance ([2]; 0.1N NaOH 250 μL/mL, conc. 2.0%, pH 3.2) was “Clear, thick,”, the Appearance ([2]; 0.1N NaOH 275 μL/mL, conc. 1.96%, pH 3.4) was “Clear, thick,” and the Appearance ([2]; 0.1N NaOH 300 μL/mL, conc. 1.92%, pH 3.6) was “Slightly cloudy,”. The Appearance ([2]; 0.1N NaOH 350 μL/mL, conc. 1.85%, pH 4.5) was “Cloudy, phase-”, the “Peptide solution pH” value ([2]; 0.1N NaOH added in 2.5% solution 0 μL/mL, conc. 2.5%) was 2.2 and the “Peptide solution pH” value ([2]; 0.1N NaOH added in 2.5% solution 50 μL/mL, conc. 2.38%) was 2.3. For the same substance, the “Peptide solution pH” value ([2]; 0.1N NaOH added in 2.5% solution 100 μL/mL, conc. 2.27%) was 2.4, the “Peptide solution pH” value ([2]; 0.1N NaOH added in 2.5% solution 150 μL/mL, conc. 2.17%) was 2.7 and the “Peptide solution pH” value ([2]; 0.1N NaOH added in 2.5% solution 200 μL/mL, conc. 2.08%) was 2.9. The “Peptide solution pH” value ([2]; 0.1N NaOH added in 2.5% solution 250 μL/mL, conc. 2.0%) was 3.2, the “Peptide solution pH” value ([2]; 0.1N NaOH added in 2.5% solution 275 μL/mL, conc. 1.96%) was 3.4 and the “Peptide solution pH” value ([2]; 0.1N NaOH added in 2.5% solution 300 μL/mL, conc. 1.92%) was 3.6. For the same substance, the “Peptide solution pH” value ([2]; 0.1N NaOH added in 2.5% solution 350 μL/mL, conc. 1.85%) was 4.5, the Appearance ([2]; pH 7.0) was “Cloudy, phase-” and the “gelation after saline buffer treatment” value [3] was “no or negligible gelation”. The Appearance ([4]; PuraMatrix ® 0.5%, DPBS (pH 3.2) 1.0 M, ionic strength 1.0 M) was “Cloudy, phase-separated”, the Appearance ([4]; PuraMatrix ® 0.55%, DPBS (pH 3.2) 0.95 M, ionic strength 0.95 M) was “Slightly cloudy, brittle gel” and the Appearance ([4]; PuraMatrix ® 0.6%, DPBS (pH 3.2) 0.9 M, ionic strength 0.9 M) was “Clear, thick, stiffer gel”. The Appearance ([4]; PuraMatrix ® 0.75%, DPBS (pH 3.2) 0.75 M, ionic strength 0.75 M) was “Clear, thick, stiffer gel”, the Appearance ([4]; PuraMatrix ® 0.9%, DPBS (pH 3.2) 0.6 M, ionic strength 0.6 M) was “Clear, thick, stiffer gel” and the Appearance ([4]; PuraMatrix ® 0.93%, KCl 1.15 M, ionic strength 1.15 M) was “Cloudy, phase-separated”. The Appearance ([4]; PuraMatrix ® 0.95%, KCl 1.1 M, ionic strength 1.1 M) was “Slightly cloudy, brittle gel”, the Appearance ([4]; PuraMatrix ® 0.98%, KCl 1.05 M, ionic strength 1.05 M) was “Slightly cloudy, thick, stiffer gel” and the Appearance ([4]; PuraMatrix ® 1.0%, KCl 1.0 M, ionic strength 1.0 M) was “Clear, thick, stiffer gel”. For the same substance, the Appearance ([4]; PuraMatrix ® 1.0%, NaCl 1.0 M, ionic strength 1.0 M) was “Cloudy, phase-separated”, the Appearance ([4]; PuraMatrix ® 1.03%, KCl 0.95 M, ionic strength 0.95 M) was “Clear, thick, stiffer gel” and the Appearance ([4]; PuraMatrix ® 1.03%, NaCl 0.95 M, ionic strength 0.95 M) was “Cloudy, phase-separated”. The Appearance ([4]; PuraMatrix ® 1.05%, DPBS (pH 3.2) 0.45 M, ionic strength 0.45 M) was “Clear, thick, stiffer gel”, the Appearance ([4]; PuraMatrix ® 1.05%, KCl 0.9 M, ionic strength 0.9 M) was “Clear, thick, stiffer gel” and the Appearance ([4]; PuraMatrix ® 1.05%, NaCl 0.9 M, ionic strength 0.9 M) was “Slightly cloudy, brittle gel”. The Appearance ([4]; PuraMatrix ® 1.08%, NaCl 0.85 M, ionic strength 0.85 M) was “Clear, thick, stiffer gel”, the Appearance ([4]; PuraMatrix ® 1.10%, NaCl 0.8 M, ionic strength 0.8 M) was “Clear, thick, stiffer gel” and the Appearance ([4]; PuraMatrix ® 1.13%, KCl 0.75 M, ionic strength 0.75 M) was “Clear, thick, stiffer gel”. For the same substance, the Appearance ([4]; PuraMatrix ® 1.13%, NaCl 0.75 M, ionic strength 0.75 M) was “Clear, thick, stiffer gel”, the Appearance ([4]; PuraMatrix ® 1.2%, DPBS (pH 3.2) 0.3 M, ionic strength 0.3 M) was “Clear, thick, stiffer gel” and the Appearance ([4]; PuraMatrix ® 1.2%, KCl 0.6 M, ionic strength 0.6 M) was “Clear, thick, stiffer gel”. The Appearance ([4]; PuraMatrix ® 1.2%, NaCl 0.6 M, ionic strength 0.6 M) was “Clear, thick, stiffer gel”, the Appearance ([4]; PuraMatrix ® 1.27%, KCl 0.45 M, ionic strength 0.45 M) was “Clear, thick, stiffer gel” and the Appearance ([4]; PuraMatrix ® 1.27%, NaCl 0.45 M, ionic strength 0.45 M) was “Clear, thick, stiffer gel”. For the same substance, the Appearance ([4]; PuraMatrix ® 1.28%, CaCl2 0.433 M, ionic strength 1.3 M) was “Cloudy, phase-separated”, the Appearance ([4]; PuraMatrix ® 1.28%, MgCl2 0.433 M, ionic strength 1.3 M) was “Cloudy, phase-separated” and the Appearance ([4]; PuraMatrix ® 1.29%, CaCl2 0.417 M, ionic strength 1.25 M) was “Slightly cloudy, brittle gel”. The Appearance ([4]; PuraMatrix ® 1.29%, MgCl2 0.417 M, ionic strength 1.25 M) was “Slightly cloudy, brittle gel”, the Appearance ([4]; PuraMatrix ® 1.3%, CaCl2 0.4 M, ionic strength 1.2 M) was “Slightly cloudy, thick, stiffer gel” and the Appearance ([4]; PuraMatrix ® 1.3%, MgCl2 0.4 M, ionic strength 1.2 M) was “Slightly cloudy, thick, stiffer gel”. For the same substance, the Appearance ([4]; PuraMatrix ® 1.31%, CaCl2 0.383 M, ionic strength 1.15 M) was “Clear, thick, stiffer gel”, the Appearance ([4]; PuraMatrix ® 1.31%, MgCl2 0.383 M, ionic strength 1.15 M) was “Clear, thick, stiffer gel” and the Appearance ([4]; PuraMatrix ® 1.32%, CaCl2 0.35 M, ionic strength 1.05 M) was “Clear, thick, stiffer gel”. For the same substance, the Appearance ([4]; PuraMatrix ® 1.32%, MgCl2 0.35 M, ionic strength 1.05 M) was “Clear, thick, stiffer gel”, the Appearance ([4]; PuraMatrix ® 1.35%, CaCl2 0.3 M, ionic strength 0.9 M) was “Clear, thick, stiffer gel” and the Appearance ([4]; PuraMatrix ® 1.35%, DPBS (pH 3.2) 0.15 M, ionic strength 0.15 M) was “Clear, thick, stiffer gel”. For the same substance, the Appearance ([4]; PuraMatrix ® 1.35%, KCl 0.3 M, ionic strength 0.3 M) was “Clear, thick, stiffer gel”, the Appearance ([4]; PuraMatrix ® 1.35%, MgCl2 0.3 M, ionic strength 0.9 M) was “Clear, thick, stiffer gel” and the Appearance ([4]; PuraMatrix ® 1.35%, NaCl 0.3 M, ionic strength 0.3 M) was “Clear, thick, stiffer gel”. The Appearance ([4]; PuraMatrix ® 1.38%, CaCl2 0.25 M, ionic strength 0.75 M) was “Clear, thick, stiffer gel”, the Appearance ([4]; PuraMatrix ® 1.38%, MgCl2 0.25 M, ionic strength 0.75 M) was “Clear, thick, stiffer gel” and the Appearance ([4]; PuraMatrix ® 1.4%, CaCl2 0.2 M, ionic strength 0.6 M) was “Clear, thick, stiffer gel”. The Appearance ([4]; PuraMatrix ® 1.4%, MgCl2 0.2 M, ionic strength 0.6 M) was “Clear, thick, stiffer gel”, the Appearance ([4]; PuraMatrix ® 1.43%, CaCl2 0.15 M, ionic strength 0.45 M) was “Clear, thick, stiffer gel” and the Appearance ([4]; PuraMatrix ® 1.43%, KCl 0.15 M, ionic strength 0.15 M) was “Clear, thick, stiffer gel”. For the same substance, the Appearance ([4]; PuraMatrix ® 1.43%, MgCl2 0.15 M, ionic strength 0.45 M) was “Clear, thick, stiffer gel”, the Appearance ([4]; PuraMatrix ® 1.43%, NaCl 0.15 M, ionic strength 0.15 M) was “Clear, thick, stiffer gel” and the Appearance ([4]; PuraMatrix ® 1.45%, CaCl2 0.1 M, ionic strength 0.3 M) was “Clear, thick, stiffer gel”. The Appearance ([4]; PuraMatrix ® 1.45%, MgCl2 0.1 M, ionic strength 0.3 M) was “Clear, thick, stiffer gel”, the Appearance ([4]; PuraMatrix ® 1.48%, CaCl2 0.05 M, ionic strength 0.15 M) was “Clear, thick, stiffer gel” and the Appearance ([4]; PuraMatrix ® 1.48%, MgCl2 0.05 M, ionic strength 0.15 M) was “Clear, thick, stiffer gel”. The Appearance ([4]; PuraMatrix ® 1.5%, CaCl2 0 M, ionic strength 0 M) was “Clear, thick gel”, the Appearance ([4]; PuraMatrix ® 1.5%, DPBS (pH 3.2) 0 M, ionic strength 0 M) was “Clear, thick gel” and the Appearance ([4]; PuraMatrix ® 1.5%, KCl 0 M, ionic strength 0 M) was “Clear, thick gel”. For the same substance, the Appearance ([4]; PuraMatrix ® 1.5%, MgCl2 0 M, ionic strength 0 M) was “Clear, thick gel”, the Appearance ([4]; PuraMatrix ® 1.5%, NaCl 0 M, ionic strength 0 M) was “Clear, thick gel” and the “salt ionic strength increase that did not change the clear color of the solution (apparent stiffness increased)” value ([4]; depending on different salts, 1.5% peptide solutions) was 0.85˜1.15 M.
